This sample holds only a part of the variants without activity.
How the values were obtained:
biotinyl-Phe-oxazolone = assay: self-aminoacylation, catalytic enhancement (BFO) (fold over background); higher = more active; k-Seq, kA / k0A0; sequences stand for … in GGGAAUGGAUCCACAUCUACGAAUUC…UUCACUGCAGACUUGACGAAGCUG
Procedure, shortened: (§1)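 Catalytic enhancement equals the median kA over the uncatalyzed rate, the latter read from the low-activity peak of a bimodal Gaussian fit. Values of kA came from fitting each sequence's fraction reacted to a pseudo-first-order model, with 1000 bootstraps. Reacted RNA was captured with streptavidin and quantified by triplicate qPCR and Illumina sequencing after 90 minutes at room temperature with 2–1250 μM biotinyl-aminoacyl-oxazolone and 0.43 μM mutagenized RNA pools bearing a 21-nt variable region.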

biotinyl-Leu-oxazolone = assay: self-aminoacylation, catalytic enhancement (BLO) (fold over background); higher = more active; k-Seq, kA / k0A0; sequences stand for … in GGGAAUGGAUCCACAUCUACGAAUUC…UUCACUGCAGACUUGACGAAGCUG
Procedure, shortened: as §1

biotinyl-Met-oxazolone = assay: self-aminoacylation, catalytic enhancement (BMO) (fold over background); higher = more active; k-Seq, kA / k0A0; sequences stand for … in GGGAAUGGAUCCACAUCUACGAAUUC…UUCACUGCAGACUUGACGAAGCUG
Procedure, shortened: as §1

biotinyl-Val-oxazolone = assay: self-aminoacylation, catalytic enhancement (BVO) (fold over background); higher = more active; k-Seq, kA / k0A0; sequences stand for … in GGGAAUGGAUCCACAUCUACGAAUUC…UUCACUGCAGACUUGACGAAGCUG
Procedure, shortened: as §1

biotinyl-Trp-oxazolone = assay: self-aminoacylation, catalytic enhancement (BWO) (fold over background); higher = more active; k-Seq, kA / k0A0; sequences stand for … in GGGAAUGGAUCCACAUCUACGAAUUC…UUCACUGCAGACUUGACGAAGCUG
Procedure, shortened: as §1

biotinyl-Ile-oxazolone = assay: self-aminoacylation, catalytic enhancement (BIO) (fold over background); higher = more active; k-Seq, kA / k0A0; sequences stand for … in GGGAAUGGAUCCACAUCUACGAAUUC…UUCACUGCAGACUUGACGAAGCUG
Procedure, shortened: as §1

Sequence	self-aminoacylation (biotinyl-Phe-oxazolone)	self-aminoacylation (biotinyl-Leu-oxazolone)	self-aminoacylation (biotinyl-Met-oxazolone)	self-aminoacylation (biotinyl-Val-oxazolone)	self-aminoacylation (biotinyl-Trp-oxazolone)	self-aminoacylation (biotinyl-Ile-oxazolone)
CUUCACCUAGGUCAACGGGUG [Fam2.2 aminoacylation ribozyme variant]	9.32	2.48	2.28	–	–	–
CCGCCCUUCAAGCAAUCGGUC [Fam1B.1 aminoacylation ribozyme variant]	38.9	2.13	–	2.62	29.9	–
AUUCACCUUGGUCAUCUGGUG [Fam2.2 aminoacylation ribozyme variant]	17.9	3.3	2.82	2.16	2.75	–
CCCCACUUGAAGCAAUCGGUC [Fam1B.1 aminoacylation ribozyme variant]	–	–	–	2.23	2.12	–
CCACACUUCAAGCAACCGGUU [Fam1B.1 aminoacylation ribozyme variant]	–	–	–	2.04	–	–
AACAUUGCUAAUAGUCGCAAG [Fam3.1 aminoacylation ribozyme variant]	2.9	–	–	–	2.67	2.5
AUUAACCUAGUUCAUCGGGUG [Fam2.2 aminoacylation ribozyme variant]	12.3	2.71	2.14	–	2.54	–
AUUCACCUAGGUCAACUGGUG [Fam2.2 aminoacylation ribozyme variant]	15.9	3.35	2.69	–	2.21	–
AUUCACCUAGGACAACGGGUG [Fam2.2 aminoacylation ribozyme variant]	25.7	3.72	3.6	–	2.92	–
AUUCACCUAGAUCAUAGGGUG [Fam2.2 aminoacylation ribozyme variant]	13.6	4.64	3.97	2.07	2.9	–
AAGUCUGCUAACAGUCGCAAG [Fam3.1 aminoacylation ribozyme variant]	28.4	–	2.09	–	7.03	–
AUCACCCUGGUCAUCGAGUUA [Fam2.1 aminoacylation ribozyme variant]	4.31	2.83	2.93	–	2.62	–
GCACACUUCAAACAAUCGGUC [Fam1B.1 aminoacylation ribozyme variant]	92.2	2.99	2.13	2.19	59	–
AUUACACUGGUCAUGGAGUGA [Fam2.1 aminoacylation ribozyme variant]	2.95	2.48	2.63	2	2.06	–
AUUACCCUGCUCAUCGUGUGA [Fam2.1 aminoacylation ribozyme variant]	14.7	2.85	2.7	–	3.19	–
AUUGCCCUGGUCAUCGAGUGC [Fam2.1 aminoacylation ribozyme variant]	11.6	4.73	4.79	2.32	4.08	–
AUUCAUCUAGGUCAUCAGGUG [Fam2.2 aminoacylation ribozyme variant]	2.89	–	2.23	–	2.07	–
AUUACCCUGGUCAUCGCGUCA [Fam2.1 aminoacylation ribozyme variant]	12.2	2.14	2.38	2.03	2.27	–
AUUACACUGGUCAUCCAGUGA [Fam2.1 aminoacylation ribozyme variant]	9.37	3.01	3.47	–	3.06	–
AUUACCGUGGUCAUCAAGUGA [Fam2.1 aminoacylation ribozyme variant]	4.54	3.05	2.83	–	3.6	–
AUUCACCUAGGUCAGCGGCUG [Fam2.2 aminoacylation ribozyme variant]	8.56	3.16	2.5	–	–	–
AUUACCCUGGUCAGCGAGUGG [Fam2.1 aminoacylation ribozyme variant]	2.26	2.51	2.51	–	2.61	–
AUUCACCUAGUUCAUCGGGUG [Fam2.2 aminoacylation ribozyme variant]	12.9	2.74	2.49	2.15	2.49	–
CCACACUUCAAGCAAACGGGC [Fam1B.1 aminoacylation ribozyme variant]	–	–	–	2.03	–	–
AUUACCCUGGUCAUCUCGUGA [Fam2.1 aminoacylation ribozyme variant]	12.4	2.62	2.37	–	2.81	–
AUUACGCUCGUCAUCGAGUGA [Fam2.1 aminoacylation ribozyme variant]	3.68	2.5	2.09	–	2.54	–
AAGUUUGCCAAUAGUCGCAAU [Fam3.1 aminoacylation ribozyme variant]	9.89	–	2.07	–	3.5	–

Sequence	self-aminoacylation (biotinyl-Phe-oxazolone)	self-aminoacylation (biotinyl-Leu-oxazolone)	self-aminoacylation (biotinyl-Met-oxazolone)	self-aminoacylation (biotinyl-Val-oxazolone)	self-aminoacylation (biotinyl-Trp-oxazolone)	self-aminoacylation (biotinyl-Ile-oxazolone)
AUUAGCCUGCUCAUCGAGUGA [Fam2.1 aminoacylation ribozyme variant]	12.2	2.92	3.42	–	4.65	–
AUUCACUUAGAUCAUCGGGUG [Fam2.2 aminoacylation ribozyme variant]	10.8	2.57	2.14	–	2.82	–
AAGUCUGCUAAUAGUCGCAAG [Fam3.1 aminoacylation ribozyme variant]	51.8	–	2.44	–	9.75	–
AUUCACUUAGGUAAUCGGGUG [Fam2.2 aminoacylation ribozyme variant]	19.6	3.33	3.11	–	2.72	–
AUCACCCUGGUCAUCGAGUGC [Fam2.1 aminoacylation ribozyme variant]	4.47	2.56	3.26	–	2.4	–
CCACACAUCAAGCAAUCGGGC [Fam1B.1 aminoacylation ribozyme variant]	–	–	–	–	2.1	2.01
AUUACCCUGGUUAUCAAGUGA [Fam2.1 aminoacylation ribozyme variant]	4.14	2.53	2.67	–	3.4	–
CCACCCUUCAAGCAAUCGGCC [Fam1B.1 aminoacylation ribozyme variant]	3.03	–	–	2.39	3.11	–
CCACACUUCAAGCAAUCGGCG [Fam1B.1 aminoacylation ribozyme variant]	–	–	2.16	2.18	2.05	–
AUUACCCUGGCCAACGAGUGA [Fam2.1 aminoacylation ribozyme variant]	21	3.31	2.75	–	5.43	–
CCACCCUUCAAGCAUUCGGUC [Fam1B.1 aminoacylation ribozyme variant]	–	–	–	2.56	–	–
AUUCACCUAGGUCACCGGGUC [Fam2.2 aminoacylation ribozyme variant]	–	–	–	2.18	–	–
CCACACCUCAAGCAAUCGGCC [Fam1B.1 aminoacylation ribozyme variant]	–	–	–	2.42	2.61	–
AGUACCCUGGUCAUCGAGUAA [Fam2.1 aminoacylation ribozyme variant]	3.84	2.52	2.71	–	–	–
CCCCACUUCAAACAAUCGGUC [Fam1B.1 aminoacylation ribozyme variant]	140	2.83	–	2.15	61.2	–
CCACACUUCAAGCCAUCCGUC [Fam1B.1 aminoacylation ribozyme variant]	–	–	–	–	–	2.04
AUUCACCUAGGUUAUCGGGGG [Fam2.2 aminoacylation ribozyme variant]	6.72	2.29	–	2.01	2.02	–
AUUACUCUGGUCAUCGAGUGG [Fam2.1 aminoacylation ribozyme variant]	–	2.42	2.16	–	–	–
CCACACUUCAAGCAACCGCUC [Fam1B.1 aminoacylation ribozyme variant]	8.07	–	–	2.09	–	–
CAGUUUGCUAAUAGUCGCAAU [Fam3.1 aminoacylation ribozyme variant]	2	–	–	–	–	2.06
CUUACCGUGGUCAUCGAGUGA [Fam2.1 aminoacylation ribozyme variant]	10.3	2.59	3.29	2.68	3.87	–
CCACACUUCACGCAAUCGCUC [Fam1B.1 aminoacylation ribozyme variant]	–	–	–	2.19	–	–
AUUCACCUAUUUCAUCGGGUG [Fam2.2 aminoacylation ribozyme variant]	8.43	3.49	2.93	2.02	3.17	–
CUUACCUUGGUCAUCGAGUGA [Fam2.1 aminoacylation ribozyme variant]	3.62	2.99	3.25	2.66	3.9	–
AUUCACCUAUGUCAUUGGGUG [Fam2.2 aminoacylation ribozyme variant]	9.21	2.34	2.03	–	2.13	–
AACUUUGCUAAUAGUUGCAAG [Fam3.1 aminoacylation ribozyme variant]	3.03	–	–	–	–	2.21
